In experiment [1] the target is T1, Aβ42 oligomers (UniProt P05067 672-713).
T1 construct: domain: Aβ42; immobilized preparation containing monomers, low and high molecular weight oligomers; also called Amyloid beta oligomers; Aβ oligomers
As to the kind of experiment: Biacore (SPR), Aβ oligomer preparation AβO1' (HQ AβO1'); upper end of the range. The procedure: (§1) Using a Biacore™ 3000, Aβ42 oligomers were immobilized (containing monomers, low and high molecular weight oligomers) and BSA (reference surface) on 4 separate flow cells of a biosensorchip. Murine 5E3 or humanized 5E3 IgG1, IgG2, and IgG4 were then diluted, sequentially injected over the different immobilized peptides and antibody binding monitored in real time. Binding data was collected by sequentially injecting buffer blanks, 1/10 dilutions of m5E3 or 1 uM dilutions of hu5E3 control over separate flow cells immobilized with BSA or Aβ42 oligomer on another biosensor chip at a flow rate of 10 μl/minute. Association was allowed for 200 seconds, followed by dissociation for 500 seconds and binding responses collected 10 seconds before the end of the […]. All binding responses were double-referenced by subtracting buffer blanks and BSA reference surface binding.
(§2) Results: As shown in FIG. 9A and FIG. 9B, the humanized 5E3 isotypes bound to the Aβ42 oligomer preparation. Affinity constants were determined for hu5E3 IgG1 Aβ42 oligomer preparations.

Experiment [2] deals with T2, cSNK:BSA conjugate (bovine, head-to-tail cyclized; conjugated to BSA carrier).
T2 construct: also called BSA-cSNK
T2 sequence (P02769 25-607 limits assumed): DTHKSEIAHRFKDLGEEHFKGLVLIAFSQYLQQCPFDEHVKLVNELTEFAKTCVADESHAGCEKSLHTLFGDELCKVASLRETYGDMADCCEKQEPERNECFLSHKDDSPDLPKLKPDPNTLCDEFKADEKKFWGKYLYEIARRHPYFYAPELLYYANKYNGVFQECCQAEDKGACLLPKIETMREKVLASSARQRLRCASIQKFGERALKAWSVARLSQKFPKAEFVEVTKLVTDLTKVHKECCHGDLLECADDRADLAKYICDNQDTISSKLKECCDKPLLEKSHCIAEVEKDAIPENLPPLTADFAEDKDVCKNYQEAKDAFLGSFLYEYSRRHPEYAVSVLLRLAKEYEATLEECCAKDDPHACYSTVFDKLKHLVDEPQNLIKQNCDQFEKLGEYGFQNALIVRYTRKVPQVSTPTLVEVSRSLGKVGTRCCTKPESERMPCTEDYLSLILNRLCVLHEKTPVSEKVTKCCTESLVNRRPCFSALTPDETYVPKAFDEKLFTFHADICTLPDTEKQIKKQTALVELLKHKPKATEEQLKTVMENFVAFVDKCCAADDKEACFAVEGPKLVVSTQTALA
As to the kind of experiment: BLI (Octet), KD2; unlabelled reference row, taken as hu5E3.

In experiment [3] the target is T3, Ovalbumin (UniProt P01012 2-386).
T3 sequence (looked up): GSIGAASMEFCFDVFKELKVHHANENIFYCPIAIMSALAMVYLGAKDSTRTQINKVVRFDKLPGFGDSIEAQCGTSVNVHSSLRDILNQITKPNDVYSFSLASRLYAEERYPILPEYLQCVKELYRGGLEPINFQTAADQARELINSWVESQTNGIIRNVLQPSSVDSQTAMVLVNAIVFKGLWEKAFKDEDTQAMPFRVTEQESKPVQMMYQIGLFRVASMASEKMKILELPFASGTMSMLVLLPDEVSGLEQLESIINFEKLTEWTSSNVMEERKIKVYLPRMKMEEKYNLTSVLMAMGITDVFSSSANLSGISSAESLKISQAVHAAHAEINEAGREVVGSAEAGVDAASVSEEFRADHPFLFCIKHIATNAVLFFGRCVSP
Nature of the experiment: Western blot of BSA, BSA-cSNK and ovalbumin probed with hu5E3-IgG1. (Immunoblotting shows a protein as a band on a membrane.)

The target of experiment [4] is T2, cSNK:BSA conjugate. As to the kind of experiment: BLI 2:1 fit, site 2 (kdis2); 25 nM row. The protocol:
(§3) Biolayer interferometry (Octet […], ForteBio) was used to qualitatively/quantitatively assess the interactions between humanized versions of 5E3 and cSNK:BSA conjugate. […] MAbs were loaded onto sensors and then washed in PBST. Each sensor was associated with one of several cSNK:BSA standards (100 nM to 0 nM) and then washed in PBST. Data was processed statistically using ForteBio Data Analysis software to determine the strength of antigen-antibody binding (KD). For each mAb analyzed, a 2:1 model provided the “best fit”.

For experiment [5], the target named is T1, Aβ42 oligomers. As to the kind of experiment: Biacore (SPR), Aβ oligomer preparation AβO1' (HQ AβO1'); lower end of the range. The protocol:
as §1, §2
For orientation: Surface plasmon resonance follows binding to a sensor surface in real time, without labels.

The target of experiment [6] is T2, cSNK:BSA conjugate. Nature of the experiment: BLI 2:1 fit, site 2 (KD2); 1.56 nM row. The procedure: as §3
The target in experiment [7] is T1, Aβ42 oligomers. As to the kind of experiment: Biacore (SPR), Aβ oligomer preparation AβO1 (HQ AβO1); upper end of the range. The procedure:
as §1, §2

For experiment [8], the target named is T2, cSNK:BSA conjugate. As to the kind of experiment: BLI 2:1 fit, site 1; 50 nM row. The protocol:
as §3

Experiment [9] has as its target T2, cSNK:BSA conjugate. Nature of the experiment: BLI 2:1 fit, site 2 (KD2); 3.13 nM row. The procedure: as §3
In experiment [10] the target is T2, cSNK:BSA conjugate. Nature of the experiment: BLI 2:1 fit, site 1; 3.13 nM row. The protocol:
as §3

The target of experiment [11] is T2, cSNK:BSA conjugate. As to the kind of experiment: BLI 2:1 fit, site 2 (kdis2); 100 nM row. The protocol: as §3
For experiment [12], the target named is T3, Ovalbumin. As to the kind of experiment: Western blot of BSA, BSA-cSNK and ovalbumin probed with m5E3. The protocol:
(§4) A 4-12% gradient SDS-PAGE gel was run with cSNK-BSA. The gel was then transferred to a nitrocellulose membrane. The next day the mAbs (1° Ab) were diluted to 2 μg/ml to 5 μg/ml depending on the antibody, and used to probe the membrane at room temperature (RT). The membranes were then probed with anti-mouse IgG-HRP (2° Ab).

Experiment [13] concerns the target T2, cSNK:BSA conjugate. As to the kind of experiment: BLI (Octet RED96), 2:1 kinetics, KD2, summary table; KD2, summary table. The procedure: as §3
Table 7 summarizes the affinity constants of humanized 5E3 IgG1, IgG2 and IgG4 constructs. The KD ranges were determined using 2:1 kinetics of binding of analyte (BSA-cSNK) in solution to two different binding sites on the surface (immobilized bivalent, monospecific 5E3) in comparison to murine 5E3 using biolayer interferometry (Octet RED96).
(Biolayer interferometry detects binding as a change in optical thickness at a sensor tip.)

For experiment [14], the target named is T3, Ovalbumin. Nature of the experiment: Western immunoblot, FIGS. 3A-D. The protocol:
as §4

Experiment [15] deals with T2, cSNK:BSA conjugate. Nature of the experiment: BLI 2:1 fit, site 1 (KD1); 3.13 nM row. The procedure:
as §3

For experiment [16], the target named is T2, cSNK:BSA conjugate. Nature of the experiment: BLI 2:1 fit, site 1 (KD1); 25 nM row. The procedure:
as §3

The target of experiment [17] is T2, cSNK:BSA conjugate. As to the kind of experiment: BLI 2:1 fit, site 1 (KD1); 50 nM row. The procedure:
as §3

For experiment [18], the target named is T2, cSNK:BSA conjugate. Nature of the experiment: BLI 2:1 fit, site 1 (KD1); 12.5 nM row. The protocol:
as §3

Results on five molecules are retold here after patent publication US20170008955A1 (CNJ, published 2017).

Positions count from the first letter of the chain named.

T1 sequence (P05067 672-713 limits assumed): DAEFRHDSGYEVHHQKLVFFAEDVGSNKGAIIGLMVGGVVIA

B1: hu5E3-IgG1 (antibody, V domains shown)
VH: QVQLQQSGPEVKKPGASVKISCKASGYIFTSYYIQWVIHAPGQGLEWIGWIYPGNVNTKYNEKFKGKATLTADKSSSTAYMELSSLTSEDTAVYFCARMDYEAHYWGQGTTVTVSS
VL: DIQMTQSPSSLSASVGDRVTITCRASQEISGYLTWLQQKPEGAIKRLIYAASTLDSGVPKRFSGSRSGSDYSLTISSLQPEDFATYNCLQYANYPRTFGGGTKLEIK
notes: human IgG1/kappa; also called humanized 5E3 IgG1; IHA variant
One may read the Kd as the constant that tells how readily two partners part at equilibrium. Broadly, the koff is a measure of how fast the partners let go of each other. What is called kon is a measure of how fast the partners come together. With B1, the Kd with Aβ42 oligomers [1] was ≤ 51.7 µM; with cSNK:BSA conjugate [2], 0.0151 µM; with Aβ42 oligomers [5], ≥ 34 µM; with cSNK:BSA conjugate [6], 0.00182 µM; in the experiment with Aβ42 oligomers [7], ≤ 3290 µM; with cSNK:BSA conjugate [8] it was 0.000463 µM. Further, the values for the Kd with cSNK:BSA conjugate [9] and with cSNK:BSA conjugate [10] were 0.00182 µM and 0.000463 µM, respectively. The binding result with Ovalbumin [3] is on record as “no binding”. Moreover, the koff in the experiment with cSNK:BSA conjugate [4] came out at 0.012 s⁻¹; with cSNK:BSA conjugate [8], 0.000825 s⁻¹; in the experiment with cSNK:BSA conjugate [10], 0.000825 s⁻¹. In addition, the kon with cSNK:BSA conjugate [8] and in the experiment with cSNK:BSA conjugate [10] was 1.78e+06 M⁻¹ s⁻¹ in each case.

B2: murine monoclonal antibody 5E3 (antibody, V domains shown)
VH: B1 VH with V11L, K12V, K19R, A40R, E82Q, S85R, T91S, V112L
VL: B1 VL with V15L, D17E, T20S, I21L, E41D, A43T, Q79E, P80S, T85D
notes: mouse antibody of the 5E3 hybridoma; also called murine 5E3; m5E3
Take B2: the koff is 0.0226 s⁻¹ with cSNK:BSA conjugate [4], 0.0226 s⁻¹ with cSNK:BSA conjugate [11], 0.000428 s⁻¹ in the experiment with cSNK:BSA conjugate [8] and 0.000428 s⁻¹ in the experiment with cSNK:BSA conjugate [10]. Further, the dissociation constant (Kd) with cSNK:BSA conjugate [6] was determined as 0.00159 µM; in the experiment with cSNK:BSA conjugate [8], 0.00033 µM; with cSNK:BSA conjugate [9], 0.00159 µM; in the experiment with cSNK:BSA conjugate [10] it was 0.00033 µM; with cSNK:BSA conjugate [13], 0.00159 µM. In addition, the kon with cSNK:BSA conjugate [8] and with cSNK:BSA conjugate [10] was 1.29e+06 M⁻¹ s⁻¹ each time. Also, in the experiment with Ovalbumin [12], the binding result was “no binding”.

B3: hu5E3-IgG2 (antibody, V domains shown)
VH: B1 VH
VL: B1 VL
notes: human IgG2/kappa; also called humanized 5E3 IgG2
As for B3, the koff in the experiment with cSNK:BSA conjugate [4] stood at 0.0338 s⁻¹; with cSNK:BSA conjugate [11], 0.0338 s⁻¹; in the experiment with cSNK:BSA conjugate [8] it was 0.000762 s⁻¹; with cSNK:BSA conjugate [10], 0.000762 s⁻¹. Moreover, the Kd was found to be 0.00118 µM with cSNK:BSA conjugate [8], 0.00639 µM with cSNK:BSA conjugate [9] and 0.00118 µM in the experiment with cSNK:BSA conjugate [10]. Besides, the kon in the experiment with cSNK:BSA conjugate [8] and in the experiment with cSNK:BSA conjugate [10] was 644000 M⁻¹ s⁻¹ throughout. Further, in the experiment with Ovalbumin [14], the binding result was “no binding”.

B4: hu5E3-IgG4 (antibody, V domains shown)
VH: B1 VH
VL: B1 VL
notes: human IgG4/kappa; also called humanized 5E3 IgG4
Regarding B4, the koff came to 0.0229 s⁻¹ in the experiment with cSNK:BSA conjugate [4], 0.0229 s⁻¹ in the experiment with cSNK:BSA conjugate [11], 0.00055 s⁻¹ in the experiment with cSNK:BSA conjugate [8] and 0.00055 s⁻¹ with cSNK:BSA conjugate [10]. Also, the Kd was determined as 0.00304 µM with cSNK:BSA conjugate [6], 0.000633 µM in the experiment with cSNK:BSA conjugate [8], 0.00304 µM in the experiment with cSNK:BSA conjugate [9] and 0.000633 µM in the experiment with cSNK:BSA conjugate [10]. Besides, the kon with cSNK:BSA conjugate [8] and with cSNK:BSA conjugate [10] was 868000 M⁻¹ s⁻¹ each time. The binding result with Ovalbumin [14] is given as “no binding”.

B5: rehu5E3-IgG4 (antibody, V domains shown)
VH: B1 VH with K12V, T87R, T91S, T111L
VL: B1 VL with V15L, I21L, G42K, S72T, T85D
notes: human IgG4/kappa; also called IgG4 rehu version
B5: the Kd with cSNK:BSA conjugate [15] amounted to 0.000557 µM; with cSNK:BSA conjugate [16] it was 0.000557 µM; in the experiment with cSNK:BSA conjugate [6], 0.00394 µM; with cSNK:BSA conjugate [17] it was 0.000557 µM; in the experiment with cSNK:BSA conjugate [9], 0.00394 µM; with cSNK:BSA conjugate [18], 0.000557 µM. In addition, the koff with cSNK:BSA conjugate [4] is 0.0175 s⁻¹; in the experiment with cSNK:BSA conjugate [11], 0.0175 s⁻¹; with cSNK:BSA conjugate [8], 0.000386 s⁻¹; with cSNK:BSA conjugate [10], 0.000386 s⁻¹. Besides, the kon with cSNK:BSA conjugate [8] and with cSNK:BSA conjugate [10] was 692000 M⁻¹ s⁻¹ each time.
